Reference: the nanobody polyreactivity screen of Harvey et al. (2022)

Assay: yeast display, Sf9 membrane polyspecificity reagent, FACS + sequencing; frameworks hold sequencing errors
Procedure, shortened: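 A synthetic nanobody library was expressed on Saccharomyces cerevisiae BJ5465 by galactose induction for 36–48 hours. The library was stained for 1 hour at 4 °C with 10% biotinylated, detergent-solubilized Sf9 membrane reagent and enriched with streptavidin microbeads before FACS. Low and high (top ~1%) gates were set on anti-HA fluorescence for expression and streptavidin fluorescence for reagent binding, and each polyreactivity label reflects the gate of origin.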

In the case of “QVQLVESGGGLVQAGGSLRLSCAASGRTFGYYAMGWYRQAPGKERELVAAITRTGGSTHYADSVKGRFTISRDNAKNTVYLQMNSLKPEDTAVYYCARDYRYTIPYDYWGQGTQVTVSS”, the “polyreactivity (PSR sort gate)” value is reported as “low polyreactivity”.
With “QVQLVESGGGLVQAGGSLRLSCAASGSTFYHNVMGWSRQAPGKERELVASIDTGDSTNYADSVKGRFTISRDNAKNTVYLQMNSLKPEDTAVYYCNADSYPALNKRGYDYWGQGTQVTVSS” the “polyreactivity (PSR sort gate)” value was “low polyreactivity”.
In the case of “QVQLLESGGGLVQAGGSLRLSCAASGSTFDSYEMGWYRQAPGKERELVAGISYSSDRTYYADSVKGRFTISRDNAKNTVYLQMNSLKPEDTAVYYCAKDHTGTVQYPLDYWGQGTQVTVSS”, the “polyreactivity (PSR sort gate)” value is reported as “low polyreactivity”.
With “QVQLVESGGGLVQAGGSLRLSCAASGFIFSSYAMGWYRQAPGKEMELVAAISWSGGRTYYADPVKGRFTISRDNAKNTVYLQLNSLKPEDTAVYYCNARYPYPYWYTSYDYWGQGTQVTVSS” the “polyreactivity (PSR sort gate)” value was “high polyreactivity”.
For “QVQLVESGGGLVQAGGSLRLSCAASGIIFYIYAMGWYRQAPGKERELVATISNDGGSTYYADSVKGRFTISRDNAKNTVYLQMNSLKPEDTAFFYCNADFADDKNYLFESELEYDYWGQGTQVTVSS”, the “polyreactivity (PSR sort gate)” value was “low polyreactivity”.
For “QVQLVESGGGLVQAGGSLRLSCAASGSIFDDNAMGWYRQAPGKERELVAAISANDGSTYYADSAKGRFTISRDNAKNTVYLQMNTLKPEDTAVYYCAAERYLSFDRYLYEYYYWGQGTQVTVSS”, the “polyreactivity (PSR sort gate)” value was “low polyreactivity”.
For “QVQLVESGGGLVQAGGSLRLSCAASGSTFQGNAMGWYSQAPGKERELVAAISRSGGSTYADSVKGRFTISRDNAKNTVYLQMNSLKPEDTAVYYCAAYSGVGYLWFDYWGQGTQVTVSS”, the “polyreactivity (PSR sort gate)” value was “low polyreactivity”.
In the case of “QVQLVESGGGLVQAGGSLRLSCAASGRTFYSYAMGWYRQAPGKERELVASISYGGGTNYADSVKGRFTISRDNAKNTVYLQMNSLKPEDTAVYYCAAKYWFFYPYDYWGQGTQVTVSS”, the “polyreactivity (PSR sort gate)” value is reported as “low polyreactivity”.
In the case of “QVQLVESGGGLVQAGGSLRLSCAASGNTFNPNAMGWYRQAPGKERELVAVIRFRGGSTYYADSVKGRFTISRDNAKNTVYLQMNSLKTEDTAVYDCAADFLYYYLRYYYWGQGTQVTVSS”, the “polyreactivity (PSR sort gate)” value is reported as “high polyreactivity”.
With “QVQLEESGGGLVQAGGSLRLSCAASGSTFTAYAMGWYREAPGKEMELVAAINWSGGTTYYADSVKGRFTISRDNAKNTVYLQMNSLKPEDTAVYYCAVDGNFFGEVRPYDYWGQGTQVTVSS” the “polyreactivity (PSR sort gate)” value was “low polyreactivity”.
In the case of “QVQLVESGGGLVQAGGSLRLSCAASGSIFEWYAMGWYRQAPGKERELVAAIDISGGDTYYADSVKGRFTISHDNAKNNVYLQRNSLKPEDTAVYYCAATRPASYAAYDYWGQGTQVTVSS”, the “polyreactivity (PSR sort gate)” value is reported as “high polyreactivity”.
With “QVQLVESGGGLVQAGGSLRLRCAPSGFIFIFNAMGWYRQAPGKERELVAAIDTSDDSTYYADSVKGRFTISRDNAKNTVYLQMNSLKPEDTAVYYCAAEELSNYEYWGQGTQVTVSS” the “polyreactivity (PSR sort gate)” value was “low polyreactivity”.
In the case of “QVQLVESGGGLVQAGGSLRLSCAASGSTFVFYAMGWYRQAPGKERELVAAISRSGGSTYYADSVKGRFTISRDNAKNTVYLQMNSLKPEDTAVYYCNAVRFYRYGWGQGTQVTVSS”, the “polyreactivity (PSR sort gate)” value is reported as “high polyreactivity”.
With “QVQLVESGGGLVQAGGSLRLSCAASGFTFTRYAMGWSRQAPGKERELVAAMSRGGTTYADSVKGRFTISRDNAKNTVYLQMNSLKPDDTAVYYCNRLRYCYPQEFGYWGLGTQVTVSS” the “polyreactivity (PSR sort gate)” value was “high polyreactivity”.
In the case of “QVQLVESGAGLVQAGVSLRLSCAASGRIFYYYTMGWYRHAPGKERELVASITIGDSTYYADSVKGRFTISRDNAKNTVYLQMNSLKPEDTAVYYCAAVKTVDVGYDYWGQGTQVTVSS”, the “polyreactivity (PSR sort gate)” value is reported as “low polyreactivity”.
For “QVQLEESGGGLVQAGGSLRLSCAASGSTFRRYTMGWYRQAPGKERELVAAITRGGSTYYADSVKGRFTISRDNAKNTVYLQMNSLKPEDTAVYYCAVKYFTAFRLRGDYWGQGTQVTVSS”, the “polyreactivity (PSR sort gate)” value was “high polyreactivity”.
For “QVQLVDSGGGLVQAGGSLRLSCAASGSSFYISAMGCYRQAPGKERELVAAITNAGSTKYADSVKGRFTISRDNAKNTVYLQMNSLKPEDTAVYYCAAVTFSYDGYDYWGQGTQVTVSS”, the “polyreactivity (PSR sort gate)” value was “low polyreactivity”.
In the case of “QVHLVESGGGLVQAGGSLRLSCAASGSNFYPYAMGWYRQEPGKERELVAAIRWRGDRTYYADSVKGRFTISRDNAKKTVYLQMNSLKPEDTGVYYCAADLSGWSTHGSWGQATQVTVSS”, the “polyreactivity (PSR sort gate)” value is reported as “high polyreactivity”.
In the case of “QVQLVESGGGLVQAGGSLRLSCAASGGIFRIYAMGGYRQAPGKERELVAAISRSGGTTYYADSVKGRFTISRDNAKNTVDLQMNSLKPEDTAVYYCNARYYQSRHVNDVPNYYWGHGTQVTVSS”, the “polyreactivity (PSR sort gate)” value is reported as “high polyreactivity”.
For “QVQLVESGGGLVQAGGSLRLSCAASGFTFRAYTMGWYRQAPGTERGLVAAITYSGGRTYYADSVKGRFTISRDNAKNTVYLQMNSLKPEDTAVYYCAAVRTKVWRGPEMDYWGQGTQVTVSS”, the “polyreactivity (PSR sort gate)” value was “high polyreactivity”.
In the case of “QVQLVESGGGLVQAGGSLRLSCAASGSTFRNYAMGWYRQAPGKDRELVAAISGSGGRTNYADSVKGRFTISRDNAKTTVYLQMNSLKPEDTAVYYCAASGGRNWWAARNYYWGQGTQVTVSS”, the “polyreactivity (PSR sort gate)” value is reported as “low polyreactivity”.
In the case of “QVQLVESGGGLVQAGGSLRLSCAASGRTVNIYAMGWYRQAAGKERELVADISYSDGSTDYADSVKGRFTISRDNAKNTVYLQMNSLKPEDTAVYYCAAYYYYYYGFGQRYYSWGQGTQVTVSS”, the “polyreactivity (PSR sort gate)” value is reported as “low polyreactivity”.
In the case of “QVQLVESGGGLVQAGGSLRLSCAASGRIIPYNTMGWYRQAPGKERELVAAISQSDTGTHYADSVKGRFTISRDNAKNTVYLQMNSLKPEDTAVYYCAVDWGYSDDVPYEYWGQGTQVTVSS”, the “polyreactivity (PSR sort gate)” value is reported as “low polyreactivity”.
In the case of “QVQHVESGGGLVQAGGNLRLSCPASGFTIYYYAMVCDRQAPGKERELVAGISKSGGITYYADSVKGRFTISRDNAKNTVYLQMNSLKPEDTAVYYCAAAEWYQFFIYRYTYEYWGQGSQVTVSS”, the “polyreactivity (PSR sort gate)” value is reported as “low polyreactivity”.
For “QVQLVESGGGLVQAGGSLRLSSAASGRTFQTNAMGWYRQAPGKERELVAAISSTGGSTYYADSVKGRFTISRDNAKNTVYLQMNSLKPEDTAVYYCNAGRTYRYDFWGQGTQVTVSS”, the “polyreactivity (PSR sort gate)” value was “high polyreactivity”.
With “QVQLVESGGGLVQAGGSLRLSCVASGLTQPYAMGWYRQAPGKERELVAAISSSGGRTSYADSVKGRFTISRDNAKNTVYLQMNSLKPEDTAVYYCNVDLGVNGDYWGQGTQVTVSS” the “polyreactivity (PSR sort gate)” value was “low polyreactivity”.
In the case of “QVQLVESGGGLVQAGGSLRLSCAASGSIFYVNAMGWYRQAPGKERELVAAISVRGGRTYYADSVKGRFTISRDNAKNTVYLQMNSLKPEDTAVYYCAAKSVYKFGDDYWGQGTQVTVSS”, the “polyreactivity (PSR sort gate)” value is reported as “high polyreactivity”.
With “QVQLVESGGGLVQAGGSLRLSCAASGFTFPFYTMGWYRQAPGKERELVAAITRSGASTFYADSVKGRFTISRDNAMNTVYLQMNSLKPEDTAVYYCATQLHRYYQDDYWGQGTQVTVSS” the “polyreactivity (PSR sort gate)” value was “high polyreactivity”.
With “QVQLVESGGGLVQAGGSLRLSCAASGSIFGRYAMGWYRQAPGKERELVAAITRSGVSTYYADSVKGRFTISGDYAKNTVYLQMNSLKPEETAVYYCNAYYRIRSSPYGYYYWGEGTQVTVSS” the “polyreactivity (PSR sort gate)” value was “high polyreactivity”.
For “QVQLVESGGGLVQAGGSLRLSCAASGIIFRRYAMGWYRQAPVKERELVAAITRGGITYYADSVKGRFTISRDNAKNTVYLQMNSLKPEDTAVYYCAALAYPQEYDYWGQGTQVTVSS”, the “polyreactivity (PSR sort gate)” value was “low polyreactivity”.
In the case of “QVQLVESGGGLVQGGGSLRLRCAASGSILLYYTMGWYRPAPGKERELVAAISWSGVSTYYADSVKGRFTISRDNPMNTVYLQMISLKPVDNEVYYCGTRSVQGSYFAGYCYWGQGPQVTVSS”, the “polyreactivity (PSR sort gate)” value is reported as “low polyreactivity”.
With “QVQLVESGGGLVQAGGSLRLSCAASGIIFTVYAMGWYRQAPGKERELVASITSNGGSTYYADSVKGRFTISRDNAKNTVYLQMNSLKPEDTAVYYCAADSYYDPVDYNYWGQGTQVTVSS” the “polyreactivity (PSR sort gate)” value was “low polyreactivity”.
With “QVQLVESCGGLVQAGGSLRLSCAASGRTFYGYAMGWYRQAPGKERELVAAITASGGSTNYADSVKGRFTISRDNAKNTVYLQMNSLKPEDTAVYYCAARVYYLGQFYWYGYWGQGTQVTVSS” the “polyreactivity (PSR sort gate)” value was “high polyreactivity”.
For “QVQLVESGGGLVQAGGSLRLSCAASGFIFPRNVMGWYRQAPGKERELVAAISRSGGSTYYADSVKGRFTISPDNVKNTVFLQMNSLIPEDTAVYYFAKRTFYNGEYWGQGTQVTVSS”, the “polyreactivity (PSR sort gate)” value was “low polyreactivity”.
In the case of “QVQLVESGGGLVQAGGSLRLSCAASGSIFYYNPMGWYRQAPGKERELVATISGRGGSTYYADSVKGRFTISRDNAKNTVYLQMNILKPEDTAVYYCNTVPSHHRHTKYDYWGQGTQVTVSS”, the “polyreactivity (PSR sort gate)” value is reported as “low polyreactivity”.
In the case of “QVQLVESGRGLFQAGGSLRLSCAASGSIFYSYAMGWYRQAPGKERELVAAISRSGGSTYYADSVKGRFTISRDNAKNTVYLQMNSLKPEDTAVYYCAAKNTGRYYWGLGTQVTVSS”, the “polyreactivity (PSR sort gate)” value is reported as “high polyreactivity”.
For “QVHFVESGGGLVQAGGSLSLSCAASGLTFSYYAMGWYRQAPGKERELVARISNSGGCTYYADSVKGRFTISRDNAKITVYLQMNSLKPEDTAVYYCAALHTSLHRNKYEYWGQGTQVTVSS”, the “polyreactivity (PSR sort gate)” value was “high polyreactivity”.
For “QVKLVESGGGLDQAGGSLRLSCAAYGSIFGDYVMGWYRQAPGKEMEFVAAISGSGGSTYYADSVKWRFTISRVNAKNTVYLQMNCLKPEDTAVYYCSTSGPQYYSRNLDYWGQGTQVTVSS”, the “polyreactivity (PSR sort gate)” value was “low polyreactivity”.
For “QVQLVESGGGLVQAGGSLRLSCADSGSTFGLYAMGGYRQSPGKEREMVAAITWGGGSTYYADSVKVRFTISRDNAKNTVYFQMNSLKPEDTAVYYCAASPIYPVYRRHGYWGQGTQVTVSW”, the “polyreactivity (PSR sort gate)” value was “high polyreactivity”.
For “QVQLVESGGGLVQAGGSLRLSCAASGIIFGTYTMGWYRQAPGKERELVAAITYSGGRTYYADSVKGRFTISRDNAKNTVYLQMNSLKPEDTAVYYCAAYRSSWGYSPYDYWGQGTQVTVSS”, the “polyreactivity (PSR sort gate)” value was “high polyreactivity”.
With “QVQLVESGGGLVQAGGSLRLSCAASGRIFSRYAMGWYRQAPGKERELVAIISSGDSTNYADSVKGRFTISRDNAKNTVYLQMNSLKPEDTAVYYCAAANWGTPPYDDWGQGTQVTVSS” the “polyreactivity (PSR sort gate)” value was “low polyreactivity”.
For “QVQLVESGGGLVQAGGSLRLSCAASGRTFRAYAMGWYRQAPGKERELVAGITSGGSTNYADSVKGRFTISRDNAKNTVYLQMNSLKPEDTAVYYCAAKTHSRTKVYTADYWGQGTQVTVSS”, the “polyreactivity (PSR sort gate)” value was “high polyreactivity”.
In the case of “QVQLVESGGGLVQAGGSLRLSCAAYGRIFWLYAMGWYRQAPGKERELVAVISWSGGTTYYADSVKGRFTISRDNAKNTVYLQMNSLKPEVTAVYYCAKQGWTSYDYWGQGTQVTVSS”, the “polyreactivity (PSR sort gate)” value is reported as “low polyreactivity”.
